Target: T1, Cdc34A^FL, full length Cdc34A (residues 1-236) (human, UniProt P49427 1-236)
T1 sequence: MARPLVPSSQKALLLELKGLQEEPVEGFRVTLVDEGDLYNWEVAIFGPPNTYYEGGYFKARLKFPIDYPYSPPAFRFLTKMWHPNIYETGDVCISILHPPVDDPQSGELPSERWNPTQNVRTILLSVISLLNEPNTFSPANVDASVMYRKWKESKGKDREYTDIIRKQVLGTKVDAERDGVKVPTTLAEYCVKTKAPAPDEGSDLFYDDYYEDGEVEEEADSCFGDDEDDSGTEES
Experiment: NMR titration

binding result: binds
B1: Rbx1^12-108-SSQS, Rbx1 fragment that contains the RING domain (residues 12-108) (domain or fragment)
chain: not shown
